Laboratory results from patent publication USRE39849 (CHEMOCENTRYX, dated 2007).

T1: human CCX CKR with N-terminal Flag epitope, stably expressed on HEK293 cells (human, UniProt Q9NPB9 1-350)
T1 construct: also called HEK293-CCX CKR cells
T1 sequence: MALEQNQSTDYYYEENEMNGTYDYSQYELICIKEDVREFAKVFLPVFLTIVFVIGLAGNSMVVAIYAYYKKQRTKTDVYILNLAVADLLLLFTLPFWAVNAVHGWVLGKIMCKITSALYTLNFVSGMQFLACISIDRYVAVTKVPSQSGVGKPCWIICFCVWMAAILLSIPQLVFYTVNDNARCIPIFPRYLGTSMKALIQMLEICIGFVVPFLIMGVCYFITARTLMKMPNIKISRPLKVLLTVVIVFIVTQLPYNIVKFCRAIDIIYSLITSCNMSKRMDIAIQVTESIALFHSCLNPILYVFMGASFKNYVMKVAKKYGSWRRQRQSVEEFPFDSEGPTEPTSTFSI


Key:
[1] = biological target: T1, human CCX CKR with N-terminal Flag …; test: displacement of 125I-ELC (or 125I-TECK) from CCX CKR stable transfectants, cold chemokine at 200 nM
[2] = biological target: T1, human CCX CKR with N-terminal Flag …; test: radioligand binding competition on CCX CKR stable transfectants
[3] = biological target: T1, human CCX CKR with N-terminal Flag …; test: radioligand binding competition on CCX CKR stable transfectants (similar experiments, not shown)

Row | Binder | binding result [1] | other results
1 | human TECK (thymus expressed chemokine) (ligand, UniProt O15444 24-150, looked up, also called soluble TECK; cold TECK) QGVFEDCCLAYHYPIGWAVLRRAWTYRIQEVSGSCNLPAAIFYLPKRHRKVCGNPKSREVQRAMKLLDARNKVFAKLHHNTQTFQAGPHAVKKLSSGNSKLSSSKFSNPISSSKRNVSLLISANSGL | binds | 
2 | mMIP-1 gamma (murine macrophage inflammatory protein-1 gamma) (ligand, UniProt P51670 22-122, looked up, also called mMIP-1γ; CCF18) QITHATETKEVQSSLKAQQGLEIEMFHMGFQDSSDCCLSYNSRIQCSRFIGYFPTSGGCTRPGIIFISKRGFQVCANPSDRRVQRCIERLEQNSQPRTYKQ | binds | 
3 | human SLC (secondary lymphoid-tissue chemokine) (ligand, UniProt O00585 24-134, looked up, also called 6Ckine; soluble SLC) SDGGAQDCCLKYSQRKIPAKVVRSYRKQEPSLGCSIPAILFLPRKRSQAELCADPKELWVQQLMQHLDKTPSPQKPAQGCRKDRGASKTGKKGKGSKGCKRTERSQTPKGP | binds | 
4 | human ELC (EBI1 ligand chemokine) (ligand, UniProt Q99731 22-98, looked up, also called MIP-3beta; MIP3beta) GTNDAEDCCLSVTQKPIPGYIVRNFHYLLIKDGCRVPAVVFTTLRGRQLCAPPDQPWVERIIQRLQRTSAKMKRRSS |  | binding result [2]: binds
5 | murine ELC (ligand, UniProt O70460 26-108, looked up, also called murine version of ELC) GANDAEDCCLSVTQRPIPGNIVKAFRYLLNEDGCRVPAVVFTTLRGYQLCAPPDQPWVDRIIRRLKKSSAKNKGNSTRRSPVS |  | binding result [2]: binds
6 | murine TECK (ligand, UniProt O35903 24-144, looked up, also called murine version of TECK) QGAFEDCCLGYQHRIKWNVLRHARNYHQQEVSGSCNLRAVRFYFRQKVVCGNPEDMNVKRAMRILTARKRLVHWKSASDSQTERKKSNHMKSKVENPNSTSVRSATLGHPRMVMMPRKTNN | binds | 
7 | murine CTACK (ligand, UniProt Q9Z1X0 26-120, looked up, also called mCTACK; CCL27) LPLPSSTSCCTQLYRQPLPSRLLRRIVHMELQEADGDCHLQAVVLHLARRSVCVHPQNRSLARWLERQGKRLQGTVPSLNLVLQKKMYSHPQQQN |  | Kd [3]: ~9 nM
